The record followed here is publication PMC10952841, “Biocatalytic synthesis of 2′‐deoxynucleotide 5′‐triphosphates from bacterial genomic DNA: Proof of principle” (Biotechnology and Bioengineering, 2023).

In this series the test system is T1, Nc1ncnc2c1ncn2[C@H]1C[C@H](O)[C@@H](COP(=O)(O)O)O1.
T1 construct: C-terminal 6x His tag (pET24a), kept; E. coli BL21(DE3) host; Ni-NTA
Kind of series: purified protein. The conditions noted are these: 2 mM ATP, 10 mM Mg acetate, 50 mM K acetate, 20 mM Tris-acetate, 37°C, three protein batches (N = 3). In kind it is biochemical, Escherichia coli.

On to “adenylate kinase (adk) (Escherichia coli K-12)”, for which the Km is 359 ± 84 µM and the Vmax is 47.9 µmol/min/mg.

In general, Km refers to the concentration of substrate that gives half-maximal velocity. As usually defined, the Vmax is the rate approached at saturating substrate.
